Here are results for 61 sequences from the supplement of paper PMC7877785.

± gives the uncertainty stated by the source.

The series in a line: self-splicing fitness, log relative to wild type (ln ratio); higher = more splicing; Tetrahymena group I intron in knt gene, E. coli kanamycin selection, DiMSum; sequences stand for … in CUCUCU…GGAGGGAAAAGUUAUCAGGCAUGCACCUGGUAGCUAGUCUUUAAACCAAUAGAUUGCAUCGGUUUAAAAGGCAAGACCGUCAAAUUGCGGGAAAGGGGUCAACAGCCGUUCAGUACCAAGUCUCAGGGGAAACUUUGAGAUGGCCUUGCAAAGGGUAUGGUAAUAAGCUGACGGACAUGGUCCUAACCACGCAGCCAAGUCCUAAGUCAACAGAUCUUCUGUUGAUAUGGAUGCAGUUCACAGACUAAAUGUCGGUCGGGGAAGAUGUAUUCUUCUCAUAAGAUAUAGUCGGACCUCUCCUUAAUGGGAGCUAGCGGAUGAAGUGAUGCAACACUGGAGCCGCUGGGAACUAAUUUGUAUGCGAAAGUAUAUUGAUUAGUUUUGGAGUACUCGUGGUCG
The procedure, abridged:
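A randomised library covering all eight P1ex-region intron nucleotides was built with the intron in the knt kanamycin-resistance gene on pET-22b(+) and held in E. coli BL21(DE3). Cells were grown overnight at 37°C or 30°C on LB agar, with or without 25 μg/mL kanamycin, plus 100 μg/mL carbenicillin, 50 μM IPTG and 0.2% rhamnose, and pooled colonies were amplicon-sequenced on an Illumina HiSeq 2500. DiMSum fitness is the error-weighted combination of wild-type-normalised replicate fold changes, kanamycin versus none.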

As for AGAUAGCAAUAUUACGUUCC, the “self-splicing fitness (ln)” value (30 °C) is -1.62 ± 0.2 and the “self-splicing fitness (ln)” value (37 °C) is -1.48 ± 0.23.

With AGAUAGCAAUAUUACGUUCG, the “self-splicing fitness (ln)” value was -0.335 ± 0.1 (30 °C) and 0.123 ± 0.14 (37 °C).

As to AGAUAGCAAUAUUACGUUCU, the “self-splicing fitness (ln)” value reads like this: (30 °C) -2.38 ± 0.14; (37 °C) -2.02 ± 0.17.

AGAUAGCAAUAUUACGUUGA: the “self-splicing fitness (ln)” value reads like this: (30 °C) -3.51 ± 0.24; (37 °C) -1.5 ± 0.14.

Consider AGCAAGCAAUAUUACGAACA, for which the “self-splicing fitness (ln)” value (30 °C) was -0.765 ± 0.099 and the “self-splicing fitness (ln)” value (37 °C) is -0.407 ± 0.12.

For the sequence AGCAAGCAAUAUUACGAAUC, the “self-splicing fitness (ln)” value (30 °C) was -4.48 ± 0.42 and the “self-splicing fitness (ln)” value (37 °C) was -1.81 ± 0.2.

With AGCAAGCAAUAUUACGACCC, the “self-splicing fitness (ln)” value by setting is: (30 °C) -0.234 ± 0.18; (37 °C) -0.196 ± 0.25.

In the case of AGCAAGCAAUAUUACGACGA, the “self-splicing fitness (ln)” value was -0.884 ± 0.14 (30 °C) and -0.398 ± 0.16 (37 °C).

With AGCAAGCAAUAUUACGAGCG, the “self-splicing fitness (ln)” value by setting is: (30 °C) 0.283 ± 0.061; (37 °C) -0.223 ± 0.076.

For AGCAAGCAAUAUUACGAUAU, the “self-splicing fitness (ln)” value reads like this: (30 °C) -2.16 ± 0.13; (37 °C) -1.51 ± 0.11.

For the sequence AGCAAGCAAUAUUACGAUUC, the “self-splicing fitness (ln)” value is -2.18 ± 0.13 (30 °C) and -1.04 ± 0.15 (37 °C).

Consider AGCAAGCAAUAUUACGCAAC, for which, for the setting “30 °C”, the “self-splicing fitness (ln)” value was -3.99 ± 0.31.

For AGCAAGCAAUAUUACGCACU, the “self-splicing fitness (ln)” value is -1.89 ± 0.11 (30 °C) and -1.37 ± 0.14 (37 °C).

As for AGCAAGCAAUAUUACGCCGA, the “self-splicing fitness (ln)” value was -0.81 ± 0.15 (30 °C) and -0.63 ± 0.17 (37 °C).

On to AGCAAGCAAUAUUACGCCGC, for which the “self-splicing fitness (ln)” value runs as follows: (30 °C) -2.89 ± 0.45; (37 °C) -2.68 ± 0.45.

Take AGCAAGCAAUAUUACGCCUA: the “self-splicing fitness (ln)” value reads like this: (30 °C) -0.835 ± 0.08; (37 °C) -0.537 ± 0.084.

Turning to AGCAAGCAAUAUUACGCGCG, the “self-splicing fitness (ln)” value (30 °C) is -1.54 ± 0.072 and the “self-splicing fitness (ln)” value (37 °C) was -0.145 ± 0.09.

Regarding AGCAAGCAAUAUUACGCGGA, the “self-splicing fitness (ln)” value (30 °C) was -2.04 ± 0.13 and the “self-splicing fitness (ln)” value (37 °C) is -0.823 ± 0.099.

As to AGCAAGCAAUAUUACGCUAU, the “self-splicing fitness (ln)” value reads like this: (30 °C) -2.4 ± 0.1; (37 °C) -2.25 ± 0.15.

For the sequence AGCAAGCAAUAUUACGCUCG, the “self-splicing fitness (ln)” value (30 °C) was -2.82 ± 0.27.

Consider AGCAAGCAAUAUUACGGAAA, for which the “self-splicing fitness (ln)” value runs as follows: (30 °C) -3.46 ± 0.18; (37 °C) -1.03 ± 0.11.

Regarding AGCAAGCAAUAUUACGGACU, the “self-splicing fitness (ln)” value is -0.137 ± 0.084 (30 °C) and -0.455 ± 0.094 (37 °C).

As for AGCAAGCAAUAUUACGGAUU, the “self-splicing fitness (ln)” value is, setting by setting: (30 °C) -1.94 ± 0.07; (37 °C) -0.407 ± 0.084.

As to AGCAAGCAAUAUUACGGCUG, the “self-splicing fitness (ln)” value is, setting by setting: (30 °C) -0.939 ± 0.077; (37 °C) -1.4 ± 0.13.

In the case of AGCAAGCAAUAUUACGGUAG, the “self-splicing fitness (ln)” value (30 °C) is -3.4 ± 0.14 and the “self-splicing fitness (ln)” value (37 °C) is -2.75 ± 0.15.

As to AGCAAGCAAUAUUACGUCGC, the “self-splicing fitness (ln)” value (37 °C) was -0.083 ± 0.23.

For the sequence AGCAAGCAAUAUUACGUGAG, the “self-splicing fitness (ln)” value by setting is: (30 °C) -2.58 ± 0.087; (37 °C) -1.44 ± 0.089.

With AGCAAGCAAUAUUACGUGAU, the “self-splicing fitness (ln)” value (30 °C) was -2.1 ± 0.072 and the “self-splicing fitness (ln)” value (37 °C) is -1.32 ± 0.08.

Turning to AGCAAGCAAUAUUACGUUUC, the “self-splicing fitness (ln)” value runs as follows: (30 °C) -4.44 ± 0.25; (37 °C) -2.09 ± 0.15.

For the sequence AGCCAGCAAUAUUACGAAUU, the “self-splicing fitness (ln)” value (30 °C) is -3.14 ± 0.15 and the “self-splicing fitness (ln)” value (37 °C) was -1.44 ± 0.11.

As for AGCCAGCAAUAUUACGAGUU, the “self-splicing fitness (ln)” value (30 °C) is -1.84 ± 0.086 and the “self-splicing fitness (ln)” value (37 °C) was -0.293 ± 0.081.

With AGCCAGCAAUAUUACGCACC, the “self-splicing fitness (ln)” value reads like this: (30 °C) -0.939 ± 0.18; (37 °C) -1.12 ± 0.18.

AGCCAGCAAUAUUACGCCAU: the “self-splicing fitness (ln)” value is, setting by setting: (30 °C) -1.5 ± 0.2; (37 °C) -1.89 ± 0.32.

Regarding AGCCAGCAAUAUUACGCGAG, the “self-splicing fitness (ln)” value by setting is: (30 °C) -1.65 ± 0.13; (37 °C) -1.29 ± 0.16.

Take AGCCAGCAAUAUUACGCGUC: the “self-splicing fitness (ln)” value was -2.8 ± 0.13 (30 °C) and -1.23 ± 0.12 (37 °C).

As for AGCCAGCAAUAUUACGCUUC, the “self-splicing fitness (ln)” value is, setting by setting: (30 °C) -3.53 ± 0.22; (37 °C) -3.48 ± 0.29.

AGCCAGCAAUAUUACGCUUG: the “self-splicing fitness (ln)” value reads like this: (30 °C) -3.52 ± 0.17; (37 °C) -1.58 ± 0.17.

Regarding AGCCAGCAAUAUUACGGAGG, the “self-splicing fitness (ln)” value is -3.01 ± 0.14 (30 °C) and -1.8 ± 0.26 (37 °C).

Take AGCCAGCAAUAUUACGGCCU: the “self-splicing fitness (ln)” value by setting is: (30 °C) -2.07 ± 0.14; (37 °C) -0.992 ± 0.15.

With AGCCAGCAAUAUUACGGCUA, the “self-splicing fitness (ln)” value is -2.42 ± 0.15 (30 °C) and -0.727 ± 0.11 (37 °C).

Turning to AGCCAGCAAUAUUACGGGAU, the “self-splicing fitness (ln)” value by setting is: (30 °C) -4 ± 0.17; (37 °C) -2.05 ± 0.12.

Regarding AGCCAGCAAUAUUACGGUAC, the “self-splicing fitness (ln)” value (30 °C) is -2.97 ± 0.2 and the “self-splicing fitness (ln)” value (37 °C) was -1.24 ± 0.13.

Take AGCCAGCAAUAUUACGUAAC: the “self-splicing fitness (ln)” value runs as follows: (30 °C) -2.67 ± 0.1; (37 °C) -2.04 ± 0.2.

AGCCAGCAAUAUUACGUCCG: the “self-splicing fitness (ln)” value was -3.12 ± 0.24 (30 °C) and -1.71 ± 0.29 (37 °C).

In the case of AGCCAGCAAUAUUACGUGAC, the “self-splicing fitness (ln)” value was -3.29 ± 0.17 (30 °C) and -2.05 ± 0.19 (37 °C).

Consider AGCCAGCAAUAUUACGUGGA, for which the “self-splicing fitness (ln)” value by setting is: (30 °C) -3.81 ± 0.18; (37 °C) -2.65 ± 0.14.

Take AGCCAGCAAUAUUACGUGGG: the “self-splicing fitness (ln)” value is -3.16 ± 0.13 (30 °C) and -1.3 ± 0.11 (37 °C).

For the sequence AGCCAGCAAUAUUACGUGUU, the “self-splicing fitness (ln)” value is -3.62 ± 0.11 (30 °C) and -1.56 ± 0.087 (37 °C).

Turning to AGCCAGCAAUAUUACGUUAG, the “self-splicing fitness (ln)” value runs as follows: (30 °C) -3.07 ± 0.14; (37 °C) -2.28 ± 0.16.

In the case of AGCCAGCAAUAUUACGUUGC, the “self-splicing fitness (ln)” value reads like this: (30 °C) -2.87 ± 0.18; (37 °C) -3.28 ± 0.27.

On to AGCGAGCAAUAUUACGAAGC, for which the “self-splicing fitness (ln)” value is -3.45 ± 0.43 (30 °C) and -2.17 ± 0.25 (37 °C).

For the sequence AGCGAGCAAUAUUACGAAUU, the “self-splicing fitness (ln)” value (37 °C) was -1.41 ± 0.34.

For the sequence AGCGAGCAAUAUUACGACAA, the “self-splicing fitness (ln)” value reads like this: (30 °C) -3.33 ± 0.41; (37 °C) -1.23 ± 0.3.

For AGCGAGCAAUAUUACGACGU, the “self-splicing fitness (ln)” value runs as follows: (30 °C) -1.74 ± 0.083; (37 °C) -0.339 ± 0.11.

As to AGCGAGCAAUAUUACGAGCA, the “self-splicing fitness (ln)” value was -0.722 ± 0.11 (30 °C) and -0.526 ± 0.11 (37 °C).

In the case of AGCGAGCAAUAUUACGCAAA, the “self-splicing fitness (ln)” value (30 °C) was -3.01 ± 0.36 and the “self-splicing fitness (ln)” value (37 °C) was -2.52 ± 0.48.

As for AGCGAGCAAUAUUACGCAGC, the “self-splicing fitness (ln)” value (30 °C) was -4.05 ± 0.46.

As to AGCGAGCAAUAUUACGCCAA, the “self-splicing fitness (ln)” value reads like this: (30 °C) -3.98 ± 0.25; (37 °C) -1.56 ± 0.16.

Turning to AGCGAGCAAUAUUACGCCCA, the “self-splicing fitness (ln)” value (30 °C) was -2.07 ± 0.39 and the “self-splicing fitness (ln)” value (37 °C) was -1.52 ± 0.34.

For AGCGAGCAAUAUUACGCGGG, the “self-splicing fitness (ln)” value is -2.55 ± 0.24 (30 °C) and -2.54 ± 0.36 (37 °C).

With AGCGAGCAAUAUUACGCUAA, the “self-splicing fitness (ln)” value by setting is: (30 °C) -1.62 ± 0.25; (37 °C) -1.85 ± 0.3.
